Laboratory results: the Immune Epitope Database (IEDB)

Assays:
[1] = target: HLA-A*32:01; experiment: IEDB peptide-MHC binding, purified MHC/competitive/radioactivity; filed as Kd, often an IC50 or EC50 that approximates it; ≥ and ≤ were set here for values at or beyond the usual limits of such assays
[2] = target: HLA-A*30:01; experiment: as above
[3] = target: HLA-B*40:01; experiment: as above; conditions: source organism: Dengue virus 2 Jamaica/1409/1983
[4] = target: HLA-B*44:02; experiment: as above; conditions: source organism: Dengue virus 2 Jamaica/1409/1983
[5] = target: HLA-B*44:03; experiment: as above; conditions: source organism: Dengue virus 2 Jamaica/1409/1983
[6] = target: HLA-A*02:01; experiment: IEDB peptide-MHC binding, purified MHC/competitive/fluorescence; filed as Kd, often an IC50 or EC50 that approximates it; ≥ and ≤ were set here for values at or beyond the usual limits of such assays
[7] = target: HLA-A*01:01; experiment: IEDB peptide-MHC binding, purified MHC/competitive/radioactivity; filed as Kd, often an IC50 or EC50 that approximates it; ≥ and ≤ were set here for values at or beyond the usual limits of such assays
[8] = target: HLA-A*26:01; experiment: as above
[9] = target: HLA-A*29:02; experiment: as above
[10] = target: HLA-A*30:02; experiment: as above
[11] = target: HLA-B*07:02; experiment: as above
[12] = target: HLA-A*01:01; experiment: IEDB peptide-MHC binding, purified MHC/direct/fluorescence; filed as Kd, often an IC50 or EC50 that approximates it; ≥ and ≤ were set here for values at or beyond the usual limits of such assays; conditions: source organism: Mycobacterium tuberculosis variant bovis BCG str. Pasteur 1173P2
[13] = target: HLA-A*26:01; experiment: as above; conditions: source organism: Mycobacterium tuberculosis
[14] = target: HLA-A*68:02; experiment: IEDB peptide-MHC binding, purified MHC/competitive/radioactivity; filed as Kd, often an IC50 or EC50 that approximates it; ≥ and ≤ were set here for values at or beyond the usual limits of such assays
[15] = target: HLA-B*51:01; experiment: as above
[16] = target: HLA-A*02:02; experiment: as above
[17] = target: HLA-A*02:03; experiment: as above
[18] = target: HLA-A*02:06; experiment: as above
[19] = target: HLA-B*35:01; experiment: as above
[20] = target: HLA-A*02:01; experiment: as above
[21] = target: HLA-B*53:01; experiment: as above
[22] = target: HLA-A*03:01; experiment: as above
[23] = target: HLA-A*31:01; experiment: as above; conditions: source organism: Mammarenavirus whitewaterense
[24] = target: HLA-A*33:01; experiment: as above; conditions: source organism: Mammarenavirus whitewaterense
[25] = target: HLA-A*68:01; experiment: as above; conditions: source organism: Mammarenavirus whitewaterense
[26] = target: HLA-B*08:01; experiment: as above; conditions: source organism: Vaccinia virus WR
[27] = source organism: Dengue virus 2 Jamaica/1409/1983
[28] = source organism: Dengue virus 3 Martinique/1243/1999
[29] = source organism: Mammarenavirus guanaritoense
[30] = source organism: Dengue virus 1 Brazil/97-11/1997
[31] = source organism: Mammarenavirus brazilense
[32] = source organism: Trypanosoma cruzi
[33] = source organism: Dengue virus 4 Dominica/814669/1981
[34] = source organism: Dengue virus 4 Philippines/H241/1956
[35] = source organism: Lassa virus Josiah
[36] = source organism: Vaccinia virus WR
[37] = source organism: Vaccinia virus Copenhagen
[38] = source organism: Mammarenavirus lassaense
[39] = source organism: Mammarenavirus juninense
[40] = source organism: Lymphocytic choriomeningitis virus (strain Armstrong)
[41] = source organism: Mammarenavirus whitewaterense
[42] = source organism: Dengue virus 2 Peru/IQT2913/1996
[43] = source organism: Hepatitis C virus (isolate Th580)

Sequence: AAAWYLWEVK
- Kd [1, 27]: 2060 nM

Sequence: AEISGSSPIL
- Kd [2, 27]: 16100 nM
- Kd [3]: 1.04 nM
- Kd [4]: 6.16 nM
- Kd [5]: 6.75 nM

Sequence: ATFKIQPFL
- Kd [2, 28]: 361 nM

Sequence: AVAANIVLTV
- Kd ([6]; source organism: Homo sapiens): 207 nM

Sequence: AVFQPSTGNY
- Kd [7, 29]: ≥ 27600 nM
- Kd [8, 29]: 776 nM
- Kd [9, 29]: 819 nM
- Kd [2, 29]: 12400 nM
- Kd [10, 29]: 21.5 nM
- Kd [1, 29]: ≥ 69900 nM

Sequence: CTREEFTRK
- Kd [2, 27]: 64.4 nM

Sequence: DPRRCLKPV
- Kd [11, 30]: 225 nM

Sequence: DTRTQTWMSA
- Kd [1, 28]: 5740 nM

Sequence: DVAAMSGYY
- Kd [12]: 318 nM
- Kd [13]: 3 nM

Sequence: EMFKTKGRY
- Kd [7, 31]: ≥ 32000 nM
- Kd [8, 31]: 650 nM
- Kd [9, 31]: 11500 nM
- Kd [2, 31]: 8950 nM
- Kd [10, 31]: 131 nM
- Kd [1, 31]: ≥ 77800 nM

Sequence: EVKKQRAGV
- Kd [8, 27]: 9120 nM
- Kd [14, 27]: 61.6 nM

Sequence: FAAGLLLRKL
- Kd [15, 27]: 11600 nM

Sequence: FANNKFTLV
- Kd [16, 32]: 64.1 nM
- Kd [17, 32]: 1.36 nM
- Kd [18, 32]: 3.05 nM
- Kd [14, 32]: 75 nM

Sequence: FLEQQNKIL
- Kd ([14]; source organism: Homo sapiens): ≥ 136000 nM

Sequence: FTILALFLAH
- Kd [8, 28]: ≥ 20900 nM
- Kd [19, 28]: ≥ 24900 nM

Sequence: FTVQADMGCV
- Kd [18, 33]: 110 nM
- Kd [14, 33]: 3.55 nM
- Kd [15, 33]: ≥ 59200 nM

Sequence: FVDYNFSLV
- Kd [16, 32]: 0.503 nM
- Kd [17, 32]: 4.24 nM
- Kd [18, 32]: 0.655 nM
- Kd [14, 32]: 75.5 nM

Sequence: GITRPTTLV
- Kd [20, 32]: ≥ 92600 nM
- Kd [16, 32]: 13700 nM
- Kd [17, 32]: 1150 nM
- Kd [18, 32]: 12200 nM
- Kd [14, 32]: 11900 nM

Sequence: GKTRRYLPAI
- Kd [2, 30]: 670 nM

Sequence: GPVLTLWEGN
- Kd [1, 34]: 1550 nM

Sequence: HPGFTVIAL
- Kd [11, 30]: 3.14 nM
- Kd [19, 30]: 1.54 nM
- Kd [21, 30]: 29.4 nM

Sequence: HVGRPTTVV
- Kd [20, 32]: 9860 nM
- Kd [16, 32]: 1060 nM
- Kd [17, 32]: 452 nM
- Kd [18, 32]: 639 nM
- Kd [14, 32]: 21.1 nM

Sequence: IALSVLAVL
- Kd [20, 35]: 1920 nM

Sequence: IIFFIVLIL
- Kd [1, 36]: 12.2 nM

Sequence: IISLWDQSL
- Kd ([20]; source organism: HIV-1 M:B_MN): 279 nM

Sequence: ILPVIFLSI
- Kd [1, 36]: 4.49 nM

Sequence: IPNHGVTAT
- Kd [19, 34]: 2280 nM

Sequence: ISRFANLIK
- Kd [2, 36]: 13.4 nM

Sequence: ITLFLILCY
- Kd [1, 36]: 1800 nM

Sequence: ITVYFRRTI
- Kd [1, 36]: 25.9 nM

Sequence: KLGFEEIKGL
- Kd [6, 37]: 30.6 nM

Sequence: KLYTIVSTL
- Kd [1, 36]: 7.12 nM

Sequence: KQNMLHVII
- Kd [1, 36]: 2.12 nM

Sequence: KSRLNALGK
- Kd [22, 27]: 11.3 nM
- Kd [2, 27]: 3.44 nM

Sequence: KTGECSKCY
- Kd [7, 38]: 12800 nM
- Kd [8, 38]: ≥ 77900 nM
- Kd [9, 38]: 10200 nM
- Kd [2, 38]: 18600 nM
- Kd [10, 38]: 834 nM
- Kd [1, 38]: 6790 nM

Sequence: KVFVPAPFG
- Kd [2, 36]: 6.64 nM

Sequence: KVLRPTPRG
- Kd [2, 33]: 300 nM

Sequence: LAGLFIDAGY
- Kd [7, 39]: 1640 nM
- Kd [8, 39]: ≥ 43600 nM
- Kd [9, 39]: 54.3 nM
- Kd [2, 39]: 12500 nM
- Kd [10, 39]: 171 nM
- Kd [1, 39]: 14900 nM

Sequence: LPDTIETLM
- Kd [19, 30]: 818 nM
- Kd [15, 30]: 19000 nM
- Kd [21, 30]: 428 nM

Sequence: LPPEKCDTL
- Kd [15, 28]: 7730 nM

Sequence: LTNEIYASI
- Kd [1, 36]: 12.9 nM

Sequence: LTYSQLMTL
- Kd [20, 35]: 227 nM
- Kd [16, 35]: 11.1 nM
- Kd [17, 35]: 7.81 nM
- Kd [18, 35]: 57.8 nM
- Kd [14, 35]: 103 nM

Sequence: LTYVVIAILT
- Kd [14, 27]: 173 nM

Sequence: MADVPLQWI
- Kd ([15]; source organism: Dengue virus 3 Singapore/8120/1995): 2270 nM

Sequence: MAVGMVSIL
- Kd [19, 27]: 10.3 nM

Sequence: MPVMKRYSAP
- Kd [11, 34]: 9340 nM
- Kd [19, 34]: 502 nM
- Kd [15, 34]: ≥ 69600 nM
- Kd [21, 34]: 16000 nM

Sequence: MPVTVASAA
- Kd [11, 30]: 120 nM
- Kd [19, 30]: 8.14 nM

Sequence: MQRIISLSV
- Kd [2, 36]: 8.81 nM

Sequence: MTMILFLKL
- Kd [1, 36]: 248 nM

Sequence: MTNGKINSL
- Kd [1, 36]: 22.3 nM

Sequence: MTTEDMLKV
- Kd [7, 34]: ≥ 22800 nM
- Kd [14, 34]: 41.8 nM

Sequence: MVNGVVKLL
- Kd ([14]; source organism: Dengue virus 1 Singapore/S275/1990): 60.2 nM

Sequence: NANAYSGKY
- Kd [7, 40]: 515 nM
- Kd [8, 40]: 4310 nM
- Kd [9, 40]: 1070 nM
- Kd [2, 40]: ≥ 37600 nM
- Kd [10, 40]: 2.71 nM
- Kd [1, 40]: ≥ 50000 nM

Sequence: NLPIYSEEI
- Kd ([20]; source organism: Homo sapiens): 66.6 nM
- Kd ([16]; source organism: Homo sapiens): 77.1 nM
- Kd ([17]; source organism: Homo sapiens): 390 nM
- Kd ([18]; source organism: Homo sapiens): 27.5 nM
- Kd ([14]; source organism: Homo sapiens): 39.3 nM

Sequence: QPHQLWTTL
- Kd [11, 30]: 3.43 nM

Sequence: RFASALTAL
- Kd [11, 27]: 324 nM

Sequence: RGRLLAAGK
- Kd [2, 36]: 125 nM

Sequence: RHRKPTYEK
- Kd [2, 34]: 24.5 nM

Sequence: RLSSNSRIL
- Kd ([20]; source organism: Hepatitis B virus): ≥ 10000 nM

Sequence: RQMATTTNPLI
- Kd ([6]; source organism: Influenza A virus (A/parakeet/Chiba/1/97(H9N2))): 13 nM

Sequence: RTKPISMYF
- Kd [2, 37]: 0.598 nM

Sequence: RTKSKILFG
- Kd [2, 36]: 10 nM

Sequence: RVPNYNLII
- Kd [1, 27]: 148 nM

Sequence: SGIFVTNEV
- Kd [14, 30]: 46.9 nM

Sequence: SLLMWITQC
- Kd ([20]; source organism: Homo sapiens): ≥ 21100 nM

Sequence: SLTCEVDAL
- Kd ([14]; source organism: Homo sapiens): 3120 nM

Sequence: SSIIRSLPK
- Kd [22, 41]: 39 nM
- Kd [2, 41]: 180 nM
- Kd [23]: 1720 nM
- Kd [24]: ≥ 39400 nM
- Kd [25]: 223 nM

Sequence: STRDGEPLM
- Kd [8, 34]: 8190 nM
- Kd [2, 34]: 71.6 nM

Sequence: STRVPNYNL
- Kd [2, 34]: 6.26 nM

Sequence: SVSLVLVGV
- Kd [14, 27]: 1.05 nM

Sequence: SYRTRAINK
- Kd [2, 36]: 1020 nM

Sequence: TLKQRLTNL
- Kd [6, 36]: 1390 nM
- Kd [26]: 1.74 nM

Sequence: TMEAMRIMGI
- Kd ([14]; source organism: Homo sapiens): 21.9 nM

Sequence: TPMMRHTIEN
- Kd [11, 30]: 1940 nM

Sequence: TPVESWEEI
- Kd [15, 42]: 10500 nM
- Kd [21, 42]: 157 nM

Sequence: TTAKEVALL
- Kd [8, 34]: 1900 nM
- Kd [14, 34]: 21.8 nM

Sequence: VLSDFKTWL
- Kd [16, 43]: 263 nM
- Kd [17, 43]: 290 nM
- Kd [18, 43]: ≥ 29500 nM
- Kd [14, 43]: ≥ 57400 nM

Sequence: VQVLALEPGK
- Kd [2, 27]: 2520 nM

Sequence: WAYHGSYEA
- Kd [19, 34]: 167 nM

Sequence: WLWYIKIFI
- Kd ([20]; source organism: HIV-1 M:B_MN): 141 nM

Sequence: WPLHRMDLGV
- Kd [15, 34]: 3280 nM

Sequence: YMMNIYLNF
- Kd [1, 36]: 2.93 nM

Sequence: YPLAIPVTM
- Kd [11, 34]: 44.6 nM
- Kd [19, 34]: 1.93 nM
- Kd [15, 34]: 38.7 nM
- Kd [21, 34]: 3.47 nM

Sequence: YVVIGILTLA
- Kd [18, 28]: 47.4 nM
- Kd [14, 28]: 123 nM
